The text below walks through data of PMC7703470 (Biosensors & Bioelectronics, 2020).

First the molecules themselves.
B1: 12B3 scFv-Fc antibody (scFv, V domains shown)
VH: AVTLDESGGGLRTPRGALSLVCKASGFSFSDHGMAWVRQAPGKGLEWVAGISSGGSGTEYGAAVKGRATISRDNGQSTVRLQLNNLRAEDTGTYYCAKTTSPYCGWSGSLDYDCGAEDIDAWGHGTEVIVSS
VL: LTQPSSVSANLGETVKITCSGDSNYYGWYQQKSPGSAPVTVIYDNAKRPSNIPSRFSGSKSGSTNTLTITGVQAEDEAVYFCGGWDSDTGTFGAGTTLTVL
B2: 12H8 scFv-Fc antibody (scFv, V domains shown)
VH: AVTLDESGGGLQTPGGGLSLVCKASGFTFSNYGMDWVRQAPGKGLEWVAGIDNDGSGRGYGAAVKGRATISRDNGQSTVRLQLNNLRAEDTATYYCAKSTYGGRGCCDTTDAWGHGTEVIVSS
VL: LTQPSSVSANPGETVKITCSGGGSWYGWFQQKSPGSAPVTVINANTNRPSDIPSRFSGSKSGSTGTLTITGVQADDEAVYFCGSYDSSTDSGIFGAGTTLTVL
B3: 12H1 scFv-Fc antibody (scFv, V domains shown)
VH: AVTLDESGGGLQTPGGTLSLVCKASGFTFSDRGMHWVRQAPGKGLEWVAGIRGDGSYTDYAPAVKGRATISRDNGQSTVRLQLNNLRAEDTATYYCAKSSYKCSTWSCRGYESDSIDAWGHGTEVIVSS
VL: LTQPSSVSANLGGTVKMTCSGGSSGYGWYQQKSPGSAPVTLIYYNDKRPSGIPSRFSGSKSDSTGTLTITGVQAEDEAVYYCGNTDSSYVGMFGAGTTLTVL
B4: 1G5 scFv-Fc antibody (scFv, V domains shown)
VH: AVTLDESGGGLQTPGGALSLVCKASGFTFSSYGMFWVRQAPGKGLEFVASITNTGSYTTYGAAVEGRATISRDNGQSTVRLQLNNLRAEDTAIYYCAKTSCNNCGWSGPGYIDAWGHGTEVIVSS
VL: LTQPSSVSANLGGTVKITCSGGGNDYGWYQQKAPGSAPVTVINTNDKRPSDIPSRFSGSKSGSTATLTITGVQAEDEAVYFCGAYDSSTSADIFGAGTTLTVL

For this assay, the target named is SARS-CoV-2 nucleocapsid protein (NP) (Severe acute respiratory syndrome …, UniProt P0DTC9). The experiment in a line: BLI. On the technique in general: In BLI a coated tip is dipped into the sample, and binding shifts an interference pattern.
As usually defined, the Kd is a measure of binding affinity in units of concentration. Higher therefore signals weaker binding. Regarding B1, the Kd amounted to 8.47 nM.

In turn, B2 came in with a Kd of 1.31 nM.

Molecule B3 gave a Kd of 18.3 nM.

B4 displayed a Kd of 2.86 nM.
